Measured values taken from patent US9539315B2, “Methods, agents and peptides for inhibiting matrix metalloproteinase-2 signaling” (New York University, priority 2011, dated 2017).
Entries after “also recorded” stand apart in the source; their conditions may differ.

Tests used:
NF-κB pathway = assay: p50 nuclear translocation / NF-κB activation in DCs (ELISA of cytosolic and nuclear fractions); assay type: cell-based, human
Description: (§1) A) DCs were exposed to MMP-2 […] or zymosan […], a known activator of NF-κB that acts via TLR2, for the indicated time. Cytosolic and nuclear fractions were isolated and p50 contents were measured by ELISA. […] C) OX40L over-expression on DCs induced by MMP-2 is inhibited by an inhibitor of NEMO, the NEMO binding domain (NBD) peptide, but not by the corresponding negative control, a NBD mutant.
(§2) PBMCs were purified from healthy-(HD) or cord blood- (CB) donors and plated at 40×10^6 cells/10 mL/dish in complete IMDM with 5% PHS. Cells were allowed to adhere for 2 h at 37° C. Non-adherent cells were removed. The monocyte-enriched fraction was supplemented with 100 UI/mL rhGMCSF and 300 UI/mL rhIL-4 (R&D Systems) on days 0, 2 and 4. Immature DCs were harvested on day 5 and matured using poly(I:C) at 5 μg/mL/10^6 DCs (Amersham). Secretion of IL-12p70, TNFα, IL-1β, IL-6, IL-8 and IL-10 was assessed on both immature and mature DCs using the Human Inflammatory Cytokine Cytometric Bead Array (BD Pharmingen).
Activation of T cell clones (10,000 cells/100 μL/well), polyclonal T cell populations (100,000 cells/100 μL/well), and DCs (50,000 cells/100 μL/well) can be determined by ELISA. IFNγ (BioSource), TNFα (BioSource), IL-4 (BioSource), IFNβ (VeriKine; PBL interferon source) and MCP-3 (DuoSet; R&D Systems) contents in supernatants were measured according to the manufacturer's instructions. p50 was measured in cytosolic and nuclear fractions (fractions separated using the nuclear separation kit from Active motif) by ELISA (Active motif).

OX40L = OX40L expression on DCs (staining); assay type: cell-based, human; conditions: DCs exposed for 2 days, stained for OX40L
Description: as §1
A) DCs were exposed to various TLR agonists for 2 days before cells were stained for OX40L. […] B) TLR2-transfected and engineered HEK cells were incubated with MMP-2 (5 mg/ml) or various controls. All conditions were also tested in the presence of a blocking antibody for TLR2. TNFα was used to activate NF-κB in a TLR-independent manner. Twenty hours later, NF-κB activation was measured.
Antibody to OX40L (11C3.1) was from Biolegend. Blocking antibodies to TLR-2 and TLR-6 were from Invivogen. Antibodies to GATA-3, IL-4 (8D4-8), IL-5 (JES1-39D10), IL-13 (JES10-5A2), TNFα (MAb11), IFNγ (25723.11), perforin (δG9), GranzymeB (GB11), CD40 (5C3), CD80 (L307.4), CD83 (HB15e), CD86 (IT2.2), HLA-DR (TU36), fluorescein isothiocyanate-conjugated antibodies to CD45RA (HI100) and CD45RO (UCHL1), and antibody to CD4 (RPA-T4) were purchased from BD Biosciences Pharmingen. Alexa fluor 488-conjugated antibody to IL-17 (eBio64DEC17), phycoerythrine-conjugated antibody to T-bet (4B10).
as §2

TLR2/MyD88 complex = target: T1, TLR2/MyD88 complex (Homo sapiens, UniProt O60603); assay: Co-immunoprecipitation of MMP-2 and TLR2 from moDCs or TLR2-transfected HEK cells; assay type: binding; conditions: n=3
T1 construct: endogenous in cells; host or cells: human monocyte-derived dendritic cells (moDCs); alternatively TLR2-transfected HEK cells
Description: 10^6 moDCs/lane or TLR2-transfected HEK cells were incubated for 20 min with or without 5 μg/ml MMP-2 or MMP-9 before being lysed. TLR2 A) and MMP-2 B) were immunoprecipitated using specific antibodies and protein G-agarose. Western blots for MMP-2 (≈70 kD), TLR2 (≈85 kD) and MyD88 (≈35 kD) were then performed. C and D) depict band intensities (mean of 3 independent experiments±s.d.), which are represented as a percentage of the band intensity corresponding to untreated cells. Two-tailed Student's t-tests were used to compare MMP-2- to MMP-9-treated cells. p values≦0.05 (*) were considered statistically significant.
To assess whether MMP-2 directly interacts with TLR2, moDCs and TLR2-transfected HEK cells were utlized. […] Similarly, TLR2 and MyD88 immunoprecipitated (n=3; p<0.05 compared to MMP-9-treated cells) with MMP-2 when moDCs were pre-treated with MMP-2 (FIG. 8B,D).

T1 sequence (O60603 21-784): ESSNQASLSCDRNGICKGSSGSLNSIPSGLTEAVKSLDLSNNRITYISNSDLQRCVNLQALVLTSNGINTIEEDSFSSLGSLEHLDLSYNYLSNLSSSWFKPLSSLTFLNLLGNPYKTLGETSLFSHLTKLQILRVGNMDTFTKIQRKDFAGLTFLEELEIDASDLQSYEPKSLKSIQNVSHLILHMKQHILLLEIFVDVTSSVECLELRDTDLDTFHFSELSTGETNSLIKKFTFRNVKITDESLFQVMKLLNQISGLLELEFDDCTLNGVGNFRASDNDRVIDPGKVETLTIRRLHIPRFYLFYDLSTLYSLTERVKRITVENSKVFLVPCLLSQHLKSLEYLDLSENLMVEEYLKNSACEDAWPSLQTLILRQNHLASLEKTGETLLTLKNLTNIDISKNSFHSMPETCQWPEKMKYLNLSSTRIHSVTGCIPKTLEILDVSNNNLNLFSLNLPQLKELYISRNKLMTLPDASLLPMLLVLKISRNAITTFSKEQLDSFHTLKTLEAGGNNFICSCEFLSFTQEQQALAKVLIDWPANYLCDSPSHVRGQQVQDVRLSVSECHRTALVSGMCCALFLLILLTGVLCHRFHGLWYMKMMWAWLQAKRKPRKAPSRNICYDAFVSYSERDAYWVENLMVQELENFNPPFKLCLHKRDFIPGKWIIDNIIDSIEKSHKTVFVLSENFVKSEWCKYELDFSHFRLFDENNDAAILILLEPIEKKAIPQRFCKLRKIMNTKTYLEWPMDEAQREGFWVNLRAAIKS
T1 sequence (Q99836 whole entry partner): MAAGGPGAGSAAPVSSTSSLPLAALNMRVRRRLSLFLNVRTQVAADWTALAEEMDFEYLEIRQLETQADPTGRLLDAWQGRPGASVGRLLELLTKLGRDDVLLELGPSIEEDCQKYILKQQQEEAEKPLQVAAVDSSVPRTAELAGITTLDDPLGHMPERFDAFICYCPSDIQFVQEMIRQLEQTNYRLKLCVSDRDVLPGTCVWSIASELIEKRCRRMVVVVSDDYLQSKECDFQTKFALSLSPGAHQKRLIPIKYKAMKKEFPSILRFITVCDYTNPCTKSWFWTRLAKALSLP

B1: matrix metalloproteinase-2 (protein)
chain: YNFFPRKPKWDKNQITYRIIGYTPDLDPETVDDAFARAFQVWSDVTPLRFSRIHDGEADIMINFGRWEHGDGYPFDGKDGLLAHAFAPGTGVGGDSHFDDDELWTLGEGQVVRVKYGNADGEYCKFPFLFNGKEYNSCTDTGRSDGFLWCSTTYNFEKDGKYGFCPHEALFTMGGNAEGQPCKFPFRFQGTSYDSCTTEGRTDGYRWCGTTEDYDRDKKYGFCPETAMSTVGGNSEGAPCVFPFTFLGNKYESCTSAGRSDGKMWCATTANYDDDRKWGFCPDQGYSLFLVAAHEFGHAMGLEHSQDPGALMAPIYTYTKNFRLSQDDIKGIQELYGASPDIDLGTGPTPTLGPVTPEICKQDIVFDGIAQIRGEIFFFKDRFIWRTVTPRDKPMGPLLVATFWPELPEKIDAVYEAPQEEKAVFFAGNEYWIYSASTLERGYPKPLTSLGLPPDVQRVDAAFNWSKNKKTYIFAGDKFWRYNEVKKKMDPGFPKLIADAWNAIPDNLDAVVDLQGGGHSYFFKGAYYLKLENQSLKSVKFGSIKSDWLGC
With B1 the “p50 translocation in the nucleus” value (NF-κB pathway; DCs exposed to MMP-2 (5 μm/ml) or zymosan (10 μm/ml), p50 by ELISA) was “triggers p50 translocation in the nucleus; also recorded: induce p50 translocation in the nucleus after 30 min”, the “NF-κB activation in DCs” value (NF-κB pathway; active vs heat-inactivated MMP-2) was “NF-κB activation (FIGS. 2A, 2B and 3) at similar levels” and the “OX40L expression on DCs” value (OX40L) was “induce OX40L expression”. For the same molecule, the “MMP-2 and MyD88 immunoprecipitated with TLR2” value (TLR2/MyD88 complex; cells pre-treated 20 min with 5 μg/ml MMP-2 (active or inactive) or MMP-9) was “immunoprecipitated” and the “TLR2 and MyD88 immunoprecipitated with MMP-2” value (TLR2/MyD88 complex; moDCs pre-treated with MMP-2) was “immunoprecipitated”.
